Test results: US20210061908A1 (IOMX THERAPEUTICS, published 2021)
One block for each binder: values may come before it.

Legend:
[1] = molecular target: T1, extracellular domain (ECD) of human IGSF11 (VSIG3), HIS-tagged (human, UniProt Q5DX21 23-241, biotinylated in the ELISA of Example 4 (site not stated)); assay: ELISA, coated IGSF11-HIS, IgG1 format; EC50 grade (* >1 nM, ** 0.05-1 nM, *** 0.02-0.05 nM, **** <0.02 nM)
T1 construct: also called HIS-IGSF11; IGSF11-HIS; not shown: HIS6 tag
T1 sequence: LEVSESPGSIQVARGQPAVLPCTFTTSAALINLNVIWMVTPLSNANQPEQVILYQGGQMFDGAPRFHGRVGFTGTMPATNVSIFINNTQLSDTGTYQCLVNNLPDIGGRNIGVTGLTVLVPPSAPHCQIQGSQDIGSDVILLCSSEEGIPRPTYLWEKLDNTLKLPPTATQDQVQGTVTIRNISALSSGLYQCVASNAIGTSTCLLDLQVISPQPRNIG

[2] = molecular target: T2, human IGSF11 (VSIG3) expressed on the surface of cells (human, UniProt Q5DX21 23-431); assay: FACS, IgG1 format, recombinant HEK cells expressing IGSF11 (HEK-OE)
T2 construct: one molecule for all cell lines; the cell line is named under assay; also called IGSF11-expressing cells; HEK-OE
T2 sequence: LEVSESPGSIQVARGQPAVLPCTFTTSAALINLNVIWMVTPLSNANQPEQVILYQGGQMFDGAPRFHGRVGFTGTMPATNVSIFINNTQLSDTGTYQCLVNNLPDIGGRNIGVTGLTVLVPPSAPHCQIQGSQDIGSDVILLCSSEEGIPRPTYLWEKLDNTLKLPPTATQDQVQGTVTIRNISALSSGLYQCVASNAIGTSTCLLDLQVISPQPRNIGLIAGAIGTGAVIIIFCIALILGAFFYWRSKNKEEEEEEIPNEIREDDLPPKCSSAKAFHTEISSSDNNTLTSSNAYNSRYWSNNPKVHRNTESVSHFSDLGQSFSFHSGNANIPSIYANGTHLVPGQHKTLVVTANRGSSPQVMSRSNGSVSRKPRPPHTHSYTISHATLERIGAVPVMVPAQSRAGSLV

[3] = molecular target: T2, human IGSF11 (VSIG3) expressed on the …; assay: FACS on M579-A2-luc cells treated with IGSF11 siRNA (KD: target knocked down, specificity control)
CL-11 (C) [4] = assay: FACS on CL-11 cells (do not express IGSF11; negative cell line) treated with IGSF11 siRNA (KD)
[5] = molecular target: T2, human IGSF11 (VSIG3) expressed on the …; assay: FACS on M579-A2-luc cells treated with scrambled control siRNA (SC)
CL-11 (C) [6] = assay: FACS on CL-11 cells (do not express IGSF11; negative cell line) treated with scrambled control siRNA (SC)
[7] = molecular target: T2, human IGSF11 (VSIG3) expressed on the …; assay: FACS on DMS 273 cells treated with scrambled control siRNA (SC)
[8] = molecular target: T2, human IGSF11 (VSIG3) expressed on the …; assay: FACS on DMS 273 cells treated with IGSF11 siRNA (KD: target knocked down, specificity control)
[9] = molecular target: T3, IGSF11 (VSIG3), construct used in SPR and BLI not stated (UniProt Q5DX21 23-241, limits assumed); assay: SPR (Biacore), IgG1 format; IGSF11 construct not stated
T3 sequence (looked up): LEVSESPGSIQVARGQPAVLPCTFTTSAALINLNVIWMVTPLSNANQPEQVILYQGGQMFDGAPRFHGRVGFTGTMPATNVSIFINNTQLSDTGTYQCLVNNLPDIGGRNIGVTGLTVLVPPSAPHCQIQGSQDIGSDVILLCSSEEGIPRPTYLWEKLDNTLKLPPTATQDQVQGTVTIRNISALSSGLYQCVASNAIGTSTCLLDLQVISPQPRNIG

- EC50 [1]: 0.02 to 0.05 nM
- EC50 [2]: > 50 nM
B1: A-035 (human IgG1 format) (antibody, V domains shown)
VH: QVQLVQSGAEVKKPGASVKVSCKASGYTFTGYYMHWVRQAPGQGLEWMGWINPNSGNTGYAQKFQGRVTMTRNTSISTAYMELSSLRSEDTAVYYCARGRLERGYWYFDLWGRGTLVTVSS
VL: NFMLTQPHSVSESPGRTVTISCTRSSGSITSNYVQWYQQRPGSAPTILIYEDKERPSEVPDRFSGSIDISSNSASLTISGLKTEDEADYYCQSYGGTSQGVLFGGGTKVTVL
notes: human IgG1 format

- EC50 [1]: < 0.02 nM
B2: A-016 (human IgG1 format) (antibody, V domains shown)
VH: QVQLQESGAEVKKPGASVKVSCKASGYTFTGYYMHWVRQAPGQGLEWMGGIIPIFGTANYAQKFQGRVTITADESTSTAYMELSSLRSEDTAVYYCAGAGMELTRSGAYYYYGMDVWGQGTTVTVSS
VL: QSALTQPASVSGSPGQSITISCTGTSSDIGGYTFVSWYQQHPGKAPKVMIHDVNNRPSGISNRFSGSKSGNTASLTISGLQAEDEADYYCSSVTSTNTYVFGTGTKVTVL
notes: human IgG1 format

- EC50 [1]: 0.02 to 0.05 nM
B5: A-008 (human IgG1 format) (antibody, V domains shown)
VH: QLQLQESGPGLVKPSETLSLTCTVSGGSISSSGYYWGWIRQPPGKGLEWIGSIYYSGSTYYNPSLKSRVTISVDTSKNQFSLKLSSVTAADTAVYYCARHRVRFGEFDAFDIWGQGTMVTVSS
VL: QAVLTQPPSVSGAPGERVTLSCTGTSSNVGADFDVHWYQQFPGTAPRLLIFGSDNRPSGVPDRFSGSKSGTSASLAITGLQVEDEADYYCQAYDVRLSGWVFGGGTKLTVL
notes: human IgG1 format

- percentage binding [3]: 1.3%
- percentage binding (CL-11 (C) [4]): 2.91%
- percentage binding [5]: 1.17%
- percentage binding (CL-11 (C) [6]): 1.95%
- percentage binding [7]: 5.97%
- percentage binding [8]: 1.6%
B6: A-015 (human IgG1 format) (antibody, V domains shown)
VH: not shown
VL: QPVLTQSPSASASLGASVKLTCTLSSGHTNYAIAWRQQQPGKAPRYLMLLNSDGSHTRGGGIPDRFSGSSSGAERYLTISSLQSEDEADYYCMIWHNNAWVFGGGTKLAVL
notes: human IgG1 format

Further lines, the binder ahead of its results:

B3: A-026 (human IgG1 format) (antibody, V domains shown)
VH: QVQLQESGPGLVKPSQTLSLTCTVSGGSISSGGYYWSWIRQHPGKGLEWIGYIYYSGSTYYNPSLKSRVTISVDTSKNQFSLKLSSVTAADTAVYYCASWSLGTSNHGWFDPWGQGTLVTVSS
VL: QSVLTQPPSASGTPGQRVTISCSGSSSNIGSNTVNWYQQLPGTAPKLLISDNNNRPSGVPDRFSGSKSGTSASLAITGLQAEDEADYYCQSYDSNLSGWVFGGGTKLTVL
notes: human IgG1 format
- EC50 [2]: > 50 nM
- percentage binding [3]: 2.01%
- percentage binding (CL-11 (C) [4]): 3.47%
- percentage binding [5]: 11.6%
- percentage binding (CL-11 (C) [6]): 3.6%
- percentage binding [7]: 64.4%
- percentage binding [8]: 3.81%

B4: A-004 (human IgG1 format) (antibody, V domains shown)
VH: EVQLVESGGGLVKPGGSLRLSCAASGFTFSSYSMNWVRQAPGKGLEWVSSISSSSSYIYYADSVKGRFTISRDNAKNSLYLQMNSLRAEDTAVYYCARGQLLWFGESALIDAFDIWGQGTMVTVSS
VL: EIVLTQSPSSLSASVGDRVTITCRASQSISSYLNWYQLKPGKAPKLLIYAASILQSGVPSRFSGSGSGTDFTLTISSLQPEDFAAYYCQQSYSTPRTFGQGTKLEIK
notes: human IgG1 format
- Kd [9]: 100 to 250 nM
- EC50 [1]: < 0.02 nM

B7: A-009 (human IgG1 format) (antibody, V domains shown)
VH: QVQLVQSGAEVKKPGSSVKVSCKASGGTFSSYAISWVRQAPGQGLEWMGGIIPIFGTANYAQKFQGRVTITADESTSTAYMELSSLRSEDTAVYYCARGRGFGELYFDYWGQGTLVTVSS
VL: ETTLTQSPATLSVSPGERATLSCRASQGVRSNIAWYQQKPGQAPRLLIYDSSTRATGIPARFSGSGSGTEFTLTISSLQSEDFAVYSCQQYKNWPRTFGQGTKVEIK
notes: human IgG1 format
- EC50 [1]: 0.05 to 1 nM

B8: A-029 (human IgG1 format) (antibody, V domains shown)
VH: QVQLVQSGAEVKKPGSSVKVSCKASGGTFSSYAISWVRQAPGQGLEWMGGIIPIFGTANYAQKFQGRVTITADESTGTAYMELSSLRSEDTAVYYCARSYYYYYGMDVWGQGTTVTVSS
VL: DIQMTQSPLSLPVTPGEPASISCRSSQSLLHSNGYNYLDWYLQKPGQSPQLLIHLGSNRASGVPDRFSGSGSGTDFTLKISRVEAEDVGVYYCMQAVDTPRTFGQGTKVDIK
notes: human IgG1 format
- EC50 [1]: 0.05 to 1 nM
